# Experimental data taken from patent US20150132779A1 (TOKYO METROPOLITAN INSTITUTE OF MEDICAL SCIENCE, published 2015).
# Target: T1, ubiquitin monomer (S. cerevisiae (yeast lysate), UniProt P0CG63 1-76)
# T1 construct: mature; Endogenous monomer of the yeast lysate, seen by western blot in the pull-down experiment; also called monoubiquitin (free, in yeast lysate)
# Assay: pull-down from yeast lysate with biotinylated TR-TUBE and streptavidin beads, anti-ubiquitin western blot
# Procedure: For Ub-ProT assay of yeast extracts, 30 OD₆₀₀ units of log-phase cells were harvested and lysed with glass beads in 300 μl of lysis buffer (50 mM Tris-HCl [pH 7.5], 100 mM NaCl, 10% glycerol, 10 μM MG132, 10 mM iodoacetamide, and 1× complete protease inhibitor cocktail [Roche, EDTA-free]). After centrifugation, the supernatant (100 μg) was incubated with TR-TUBE (10 μg) for 1 h at 4° C. Next, TR-TUBE-bound polyubiquitylated proteins were incubated with Dynabeads MyOne Streptavidin C1 (1 mg, Life Technologies) for 45 min at 4° C. The beads were washed three times with PBS-T, and then incubated in 100 μl of 50 mM AMBC, 0.01% Rapigest SF, and trypsin (1.5 μg) overnight at 37° C. […] After the beads were washed with PBS-T, the polyubiquitin chains were selectively eluted by 30-min incubation with 1× NuPAGE LDS sample buffer. The samples were directly subjected to electrophoresis on NuPAGE gels in order to avoid aggregation of polyubiquitin chains.
# The inventors of the present invention next investigated the mean lengths of substrate-attached polyubiquitin chains in yeast lysate. To the knowledge of the inventors of the present invention, the actual chain lengths of polyubiquitylated proteins in vivo have not been previously determined. In this experiment, the inventors of the present invention used a drug-sensitive pdr5 mutant to determine the effect of a proteasome inhibitor, MG132. […]
# T1 sequence (P0CG63 1-76 limits assumed): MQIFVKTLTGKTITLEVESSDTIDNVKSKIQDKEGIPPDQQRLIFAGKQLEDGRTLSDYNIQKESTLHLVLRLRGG
binder,measurement,value
"trypsin-resistant tandem ubiquitin binding entity (TR-TUBE) (designed binder, Cys residue upstream of the hexahistidine tag biotinylated with EZ-link Maleimide-PEG2-Biotin, also called 6x TR-TUBE; biotinylated TR-TUBE) MRGCHHHHHHGMASMTGGQQMGDIGGGGSGGGVNPQLQNPEVAFQQQLEQLSAMGFLNAEANLQALIATGGDINAAIEALLGSQPSGGGGSGGGVNPQLQNPEVAFQQQLEQLSAMGFLNAEANLQALIATGGDINAAIEALLGSQPSGGGGSGGGVNPQLQNPEVAFQQQLEQLSAMGFLNAEANLQALIATGGDINAAIEALLGSQPSGGGGSGGGVNPQLQNPEVAFQQQLEQLSAMGFLNAEANLQALIATGGDINAAIEALLGSQPSGGGGSGGGVNPQLQNPEVAFQQQLEQLSAMGFLNAEANLQALIATGGDINAAIEALLGSQPSGGGGSGGGVNPQLQNPEVAFQQQLEQLSAMGFLNAEANLQALIATGGDINAAIEALLGSQPSGGGGS",binding result,no binding
